The results in this text go back to publication PMC3592463.

Where two headings read alike, the source gives them in different places.

For data set [1], the target named is T1, Hfq (E. coli, UniProt P0A6X3 1-102). In words: MST.
Data set [2] has as its target T1, Hfq. Nature of the data set: MST. The source holds these as a separate data set.
For data set [3], the target named is T2, Tat(44-61) (UniProt P04608 44-61).
T2 chain: GISYGRKKRRQRRRAHQN
In words: MST.

The target in data set [4] is T2, Tat(44-61). Nature of the data set: MST.
Data set [5] deals with T1, Hfq. Nature of the data set: EMSA. For orientation: A gel shift assay detects complexes by their altered migration in electrophoresis.

The Kd is the free concentration of one partner at which half of the binding sites on the other are occupied at equilibrium, for simple one-to-one binding. Low values mean tighter binding, high ones weaker binding.

T1 sequence (P0A6X3 whole entry): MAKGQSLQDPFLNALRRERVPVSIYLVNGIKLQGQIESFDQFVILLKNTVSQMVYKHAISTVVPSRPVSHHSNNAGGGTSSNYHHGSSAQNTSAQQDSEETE

On to AAUUUAAUGUUUUAGUUACUA (ssRNA) [J2], for which, in the data set with Hfq [1], the binding result was “binds”.

For AACUCAAUGUCUUAGUUACUG (ssRNA) [J4], the binding result with Hfq [2] is recorded as “binds”.

B1: JM6 (dsRNA)
RNA 1: GACUCAGUGUCAGAGUCACUG
RNA 2: CAGUGACUCUGACACUGAGUC
B1: the binding result in the data set with Hfq [2] was “no binding”. In the data set with Tat(44-61) [3], AUGUGGAAAAUCUCUAGCAGU (ssRNA) [21R+] came in with a dissociation constant (Kd) of 6.3 ± 0.5 µM.

B2: ds21R (dsRNA)
RNA 1: AUGUGGAAAAUCUCUAGCAGU
RNA 2: ACUGCUAGAGAUUUUCCACAU
Take B2: the Kd with Tat(44-61) [4] worked out at 7.4 ± 0.9 µM. Regarding GACUCAGUGUCAGAGUCACUG (ssRNA) [J6], the binding result with Hfq [2] is on record as “no binding”. Consider AAUUUAAUGUUUUAUUUAUUA (ssRNA) [J1], for which the binding result in the data set with Hfq [5] is on record as “binds”.

Turning to AAUUCAAUGUUUUAGUUACUG (ssRNA) [J3], in the data set with Hfq [2], the binding result is given as “binds”.
